Experimental data as given in patent publication US20160333308A1.

Tests used:
[1] = target: methanol dehydrogenase MDH2 from Bacillus methanolicus PB1 (Bacillus methanolicus PB1); test: cell-based or functional assay
[2] = tested on: activator protein (ACT) from Bacillus methanolicus PB1

specific activity of MDH2 with ACT, crude lysates [1] | Substance | Km for methanol of MDH2 with ACT, crude lysates [2]
0.009 µmol/min/mg | activator protein (ACT) from Bacillus methanolicus PB1 | –
– | methanol dehydrogenase MDH2 from Bacillus methanolicus PB1 | a Km of 119 mM
